{"source": "patent US20260234655A1", "about": "“Nuclear Targeted DNA Delivery and Compositions for Use in Practicing the Same” (Seawolf Therapeutics, Inc., priority 2022, published 2026)", "molecules": {"B1": {"name": "NFKB: benchmark DTS with NF-κB binding sites in pentameric repeat (SEQ ID NO: 140) (nucleic acid)", "DNA": "GGGACTTTCCAGATTACTACTGATAGGGACTTTCCAGATTACTACTGATAGGGACTTTCCAGATTACTACTGATAGGGACTTTCCAGATTACTACTGATAGGGACTTTCC", "modifications": "DNA nuclear targeting sequence within DNA cargo construct, further chemistry not given here"}}, "type_in_all_cases": "cell-based", "key": {"[1]": {"system": "growth-arrested HepG2 cells", "experiment": "Pooled DTS screen in growth-arrested HepG2 cells; mRNA abundance by RNA-seq of UMIs", "source_text": "Library cloning. Pooled DTS libraries were designed as described above. To ensure the highest quality library production of oligos for cloning, oligo lengths were standardized to 300 bp. To accommodate this standardized length the core sequence of each DTS was embedded center-justified in a neutral fragment of random DNA sequence. The flanks of each oligo contained unique golden gate restriction enzyme digestion sites (Bsal) for cloning of double stranded DNA into screening vectors. […] The proper UMI/DTS barcode correlation (termed here the “library registry”) was determined via excision of the hTTR/eGFP fragments, re-ligation of the vector, PCR amplification of the corresponding proximal DTS and UMI regions, and sequencing on an Illumina Miseq (2×150 bp reads). […]\nQuantification of mRNA abundance from pooled DTS screens. […] The PCR amplified cDNA was then library prepped (NEBNext library prep for Illumina) and sequenced on an Illumina Miseq (2×150 bp reads). Counts for each UMI were translated into the corresponding DTS using the UMI/Barcode registry and changes in abundance of each DTS were statistically analyzed using a custom R script. The log 2 fold change is calculated by comparing the RNA level in the pool vs. its expected abundance, which is derived from the abundance in the corresponding input DNA pool. […]"}, "[2]": {"system": "growth-arrested HepG2 cells", "experiment": "Arrayed DTS screen in growth-arrested HepG2 cells; GFP intensity by live-cell imaging", "details": "24 h post-transfection", "source_text": "(§1) DNA construct design. Each DTS was constructed in pentameric repeat using a 15 bp spacer between each TFBS. The DTS was appended just 5′ to the promoter, effectively in a putative enhancer region. Various promoters were employed in these constructs, including CBh (a variant of the CAG promoter) and TTR. Several reporter genes were employed in these constructs, including enhanced Green Fluorescent Protein (eGFP). The polyadenylation (polyA) signal is a BGH-PolyA sequence. For pooled screening, unique molecular identifiers (UMIs; also known as barcodes) were used to distinguish between DNA constructs in a pool, and the UMIs were appended to the 3′UTR immediately downstream of the stop codon of eGFP, just preceding the BGH-PolyA sequence.\nCell culture. HepG2 cells were plated into a 384-well plate and grown for 48 hours to achieve confluency. Cell media was removed and replaced with culture media supplemented with Aphidicolin (1 uM) using EL406 automated plate washer and dispenser, then cells were transfected with DTS containing 17.5 ng plasmids using Lipofectamine 3000 without supplement. Expression of GFP was monitored using a Biotek Cytation 5 cell imaging reader over 24 hours to evaluate DTS activity. Total GFP per well was calculated and averaged over 4 well replicates.\npDNAs containing various DTSs (Table 12) were transfected individually into growth-arrested HepG2 cells. Cell growth was inhibited to prevent dissolution of the nuclear envelope. GFP expression was quantified over a period of 24 h post-transfection by measuring GFP intensity using quantitative live-cell imaging. Statistical analysis and hierarchical clustering methods were used to easily differentiate strong DTSs from weak DTSs in a heatmap (FIG. 5A). […] DTS.203: CREB1, PPARA, ONECUT1, HNF4A, PPARA. DTS.233: HNF1A, NR113, PPARA, HNF1A, PPARA. DTS.276: FOXA1, HNF4A, HNF1A, HNF4A, HNF1A.\nFor the arrayed screen, pDNAs containing various DTSs were transfected individually into growth-arrested HepG2 cells. For the pooled screen, pDNAs containing various DTSs were pooled together and transfected as a pool into growth-arrested HepG2 cells. Cell growth was inhibited to prevent dissolution of the nuclear envelope, which improves the accuracy of measuring DTS activity related to nuclear translocation. For the arrayed screen, GFP protein expression was quantified 24 h post-transfection by measuring GFP intensity using quantitative live-cell imaging. For the pooled screen, mRNA abundance for each DTS variant was determined using RNA-seq by deconvoluting the read counts for each UMI. A strong correlation between protein expression in the arrayed screen and mRNA expression in the pooled screen was observed (FIG. 6). […] Pooled screening can thus be used to quickly and reliably identify strong DTSs."}, "[3]": {"system": "primary human hepatocytes", "experiment": "pDNAs containing DTSs transfected into primary human hepatocytes; GFP by quantitative live-cell imaging and FACS", "details": "24 h post-transfection", "source_text": "as §1\nPlasmid DNAs (pDNAs) containing various DTSs were transfected into primary human hepatocytes. GFP expression was quantified 24 h post-transfection by measuring GFP intensity using quantitative live-cell imaging, then cells were harvested and the % of GFP-positive cells was measured by FACS. A strong correlation between total GFP intensity and % GFP-positive cells was observed (FIG. 3A). The DTSs identified as hits (open circles) increased both the GFP intensity and the % GFP-positive cells compared to the Spacer negative control (FIG. 3A). […]"}}}
{"molecule": "B1", "values": [{"measurement": "mRNA abundance in pooled screen relative to Spacer negative control", "setting": "[1]", "value": "robust increases"}, {"measurement": "GFP intensity / gene expression in arrayed screen compared to Spacer negative control", "setting": "[2]", "value": "robust increases"}, {"measurement": "gene expression compared to the pDNA with no DTS", "setting": "[3]", "value": "robust increases"}, {"measurement": "increase in GFP intensity compared to the pDNA with no DTS", "setting": "[3]", "value": "~10", "unit": "fold"}]}
